According to patent US20160280784A1, “Antibodies Directed to GPNMB and Uses Thereof” (Celldex Therapeutics, Inc., priority 2009, published 2016):

Experiments:
[1] = system: patients with locally advanced or metastatic breast cancer; assay: Phase I/II study of CDX-011, preliminary 18 patients: tumor response; type: in vivo, human
Experimental: (§1) There was no limit to the number of prior regimens.
(§2) For Phase I dose escalation studies, the starting dose was 1.34 mg/kg IV every three weeks (q3w). Sequential dose cohorts (n=3) were enrolled based on tolerability. The cap was set at 1.88 mg/kg IV q3w.

melanoma = melanoma patients; cited from earlier work
[2] = system: patients with locally advanced or metastatic breast cancer; assay: Phase I/II study of CDX-011, preliminary 18 patients: toxicity and dose escalation; type: in vivo, human
Experimental: as §1, §2
The toxicity results are shown below in Table 34. All treatment-emergent adverse events are shown in the table, regardless of attribution.

[3] = system: patients with locally advanced or metastatic breast cancer; assay: Phase II study (n = 42): tolerability of CR011-vcMMAE (CDX-011); type: in vivo, human
Text: (§3) For the Phase II Simon Two-Stage study, the primary endpoint was set at progression-free rate at 12 weeks. The following statistical assumptions were used p0=10%; p1=30%; α=β=0.10; first stage included sixteen patients; and if two or more patients were progression-free at 12 weeks, the total enrollment would increase to 25.
In particular, the treated patients (n=42) received a mean of 3.5 (range 1-8) cycles of treatment during this study. Four patients discontinued treatment due to adverse events (neuropathy, rash, dermatologic bullae and acute renal failure). Dose-escalation dose-limiting toxicities (DLTs) were limited to two cases of neuropathy (at the 1.34 mg/kg dose). After revision of the protocol to exclude pre-existing neuropathy ≧Grade 2, no further DLT occurred.

[4] = system: GPNMB-expressing breast cancer cells; assay: growth / killing of GPNMB-expressing breast cancer cells in vitro; type: cell-based
[5] = system: patients with locally advanced or metastatic breast cancer; assay: Phase II Simon Two-Stage study / Phase II dose: anti-tumor activity (RECIST); type: in vivo, human; conditions: for Median PFS: Phase II Dose 1.88 mg/kg
Experimental: as §3
Additional measures of anti-tumor activity were evaluated for the patients in this further study.

[6] = 18 patients, regardless of attribution
[7] = All Patients (n = 42), potentially related to CDX-011
[8] = one patient with triple-negative disease, strongly positive stromal GPNMB expression

glembatumumab vedotin [CDX-011]
tumor shrinkage ([1]; initial results from a phase I/II trial, metastatic breast cancer): tumor shrinkage was observed
confirmed partial response ([1]; of the 18 patients): one
patients with at least a partial response ([1]; of the 18 patients): three
tumor shrinkage observed ([1]; of the 18 patients (50%)): 9 patients
maximum tumor reduction ([1]; one patient, ER+/PR+/HER2+, partial response after two cycles, confirmed 6 weeks later, treatment for over 5 months): 42%
reduction in target lesions (partial response, CT) ([1]; one patient, ER+/PR+/HER2−, GPNMB positive biopsy, after two cycles): 51%
clinical outcome ([1]; one patient, triple negative, skull metastases, following two cycles, resolution of mental nerve paresis and discontinuation of analgesics): marked clinical improvement
reduction in target lesions (partial response, CT) ([1]; one patient, triple negative, after four cycles): 34%
clinical activity (melanoma): clinical activity
tolerability (melanoma): well tolerated
tolerability in dose escalation ([2]; 1.88 mg/kg IV q3w): tolerated
Alopecia, Total [2, 6]: 9 (50%) n (%)
Anorexia, Grade 3 [2, 6]: 0 (0%) n (%)
Anorexia, Grade 4 [2, 6]: 0 (0%) n (%)
Anorexia, Total [2, 6]: 5 (28%) n (%)
Any Event, Grade 3 [2, 6]: 10 (56%) n (%)
Any Event, Grade 4 [2, 6]: 0 (0%) n (%)
Any Event, Total [2, 6]: 18 (100%) n (%)
Constipation, Grade 3 [2, 6]: 0 (0%) n (%)
Constipation, Grade 4 [2, 6]: 0 (0%) n (%)
Constipation, Total [2, 6]: 6 (33%) n (%)
Cough, Grade 3 [2, 6]: 1 (6%) n (%)
Cough, Grade 4 [2, 6]: 0 (0%) n (%)
Cough, Total [2, 6]: 6 (33%) n (%)
Diarrhea, Grade 3 [2, 6]: 0 (0%) n (%)
Diarrhea, Grade 4 [2, 6]: 0 (0%) n (%)
Diarrhea, Total [2, 6]: 5 (28%) n (%)
Dizziness, Grade 3 [2, 6]: 0 (0%) n (%)
Dizziness, Grade 4 [2, 6]: 0 (0%) n (%)
Dizziness, Total [2, 6]: 4 (22%) n (%)
Dysgeusia, Grade 3 [2, 6]: 0 (0%) n (%)
Dysgeusia, Grade 4 [2, 6]: 0 (0%) n (%)
Dysgeusia, Total [2, 6]: 4 (22%) n (%)
Fatigue, Grade 3 [2, 6]: 1 (6%) n (%)
Fatigue, Grade 4 [2, 6]: 0 (0%) n (%)
Fatigue, Total [2, 6]: 9 (50%) n (%)
Fever, Grade 3 [2, 6]: 0 (0%) n (%)
Fever, Grade 4 [2, 6]: 0 (0%) n (%)
Fever, Total [2, 6]: 5 (28%) n (%)
Nausea, Grade 3 [2, 6]: 1 (6%) n (%)
Nausea, Grade 4 [2, 6]: 0 (0%) n (%)
Nausea, Total [2, 6]: 8 (44%) n (%)
Neuropathy, Grade 3 [2, 6]: 2 (11%) n (%)
Neuropathy, Grade 4 [2, 6]: 0 (0%) n (%)
Neuropathy, Total [2, 6]: 7 (39%) n (%)
Neutropenia, Grade 3 [2, 6]: 3 (17%) n (%)
Neutropenia, Grade 4 [2, 6]: 0 (0%) n (%)
Neutropenia, Total [2, 6]: 5 (28%) n (%)
Pain, Gastrointestinal, Grade 3 [2, 6]: 1 (6%) n (%)
Pain, Gastrointestinal, Grade 4 [2, 6]: 0 (0%) n (%)
Pain, Gastrointestinal, Total [2, 6]: 6 (33%) n (%)
Pain, Musculoskeletal, Grade 3 [2, 6]: 1 (6%) n (%)
Pain, Musculoskeletal, Grade 4 [2, 6]: 0 (0%) n (%)
Pain, Musculoskeletal, Total [2, 6]: 5 (28%) n (%)
Pruritus, Grade 3 [2, 6]: 0 (0%) n (%)
Pruritus, Grade 4 [2, 6]: 0 (0%) n (%)
Pruritus, Total [2, 6]: 3 (17%) n (%)
Rash, Grade 3 [2, 6]: 1 (6%) n (%)
Rash, Grade 4 [2, 6]: 0 (0%) n (%)
Rash, Total [2, 6]: 11 (61%) n (%)
Vomiting, Grade 3 [2, 6]: 0 (0%) n (%)
Vomiting, Grade 4 [2, 6]: 0 (0%) n (%)
Vomiting, Total [2, 6]: 7 (39%) n (%)
dose-limiting toxicity ([2]; first two patients enrolled at 1.34 mg/kg IV q3w, both had baseline neuropathy): dose-limiting worsening of peripheral sensory neuropathy
patients discontinued for an adverse event ([2]; of 18 patients treated, one for neuropathy and one for rash): two
tolerability ([3]; 1.88 mg/kg IV q3w, patients with advanced breast cancer): well-tolerated
Alopecia, Total [3, 7]: 14 (33%) n (%)
Anemia, Total [3, 7]: 10 (24%) n (%)
Asthenia, Grade 3 [3, 7]: 2 (5%) n (%)
Asthenia, Total [3, 7]: 3 (7%) n (%)
Fatigue, Grade 3 [3, 7]: 2 (5%) n (%)
Fatigue, Total [3, 7]: 20 (48%) n (%)
Nausea, Grade 3 [3, 7]: 2 (5%) n (%)
Nausea, Total [3, 7]: 19 (45%) n (%)
Neuropathy, Grade 3 [3, 7]: 1 (2%) n (%)
Neuropathy, Total [3, 7]: 10 (24%) n (%)
Neutropenia, Grade 3 [3, 7]: 8 (19%) n (%)
Neutropenia, Total [3, 7]: 12 (29%) n (%)
Rash, Grade 3 [3, 7]: 2 (5%) n (%)
Rash, Total [3, 7]: 19 (45%) n (%)
Vomiting, Grade 3 [3, 7]: 1 (2%) n (%)
Vomiting, Total [3, 7]: 12 (29%) n (%)
serious adverse events potentially related ([3]; all single cases at the Phase II dose): intractable vomiting/nausea, dermatologic bullae and acute renal failure
dose-escalation dose-limiting toxicities (DLTs) ([3]; at the 1.34 mg/kg dose): two
patients discontinued treatment due to adverse events ([3]; n=42, neuropathy, rash, dermatologic bullae and acute renal failure): Four
most common adverse event reported ([3]; patients treated with CR011-vcMMAE): Rash
killing of GPNMB-expressing breast cancer cells [4]: selectively killed
growth of GPNMB-expressing breast cancer cells ([4]; in vitro): effectively inhibits the growth
Median PFS ([5]; all patients): 9.1 weeks
Median PFS ([5]; Expressing GPNMB): 18.3 weeks
Median PFS ([5]; Triple-negative disease): 17.9 weeks
outcomes by expression of GPNMB ([5]; heavily pretreated advanced breast cancer patients): associated with improved outcomes
duration partial response was maintained [5, 8]: ≥ 23 weeks
tumor shrinkage (partial response) [5, 8]: 53%
patients without progression at 12 weeks (primary efficacy endpoint) ([5]; out of 26 patients): at least 9 patients
